Reference: patent US12006519B2, “Polymerase mutants and use with 3′-OH unblocked reversible terminators” (Agilent Technologies, Inc., priority 2021, dated 2024)
Where a chain is given by its changes, count along the chain named. In names and notes the source's numbering stands.

B1: Pfu10-N12: Pfu10 variant with 15 conservative mutations plus M129A, SEQ ID NO:3 (protein)
chain: MILDVDYITEEGKPIIRLFKKENGKFRIEHDRTFRPYIYALLRDDSKIEEIKKITGERHGKIVRIVDVEKVEKKFLGKPVTVWRLYLEHPQDVPTIREKVKEHPAVIDIFEYDIPFAKRYLIDKGLVPAEGEEELKILAFAIATLYHEGEEFGKGPIIMISYADENEAKVITWKNIDLPYVEVVSSEREMIKRFVKIIKEKDPDIIVTYNGDSFDFPYLAKRAEKLGVKLTIGRDGSEPKMQRIGDMTAVEVKGRIHFDLYHVITRTINLPTYTLEAVYEAIFGKPKEKVYADEIAKAWESGENLERVAKYSMEDAKATYELGKEFLPMEIQLSRLVGQPLWDVSRSSTGNLVEWFLLRKAYERNEVAPNKPSEEEYQRRLRESYTGGFVKEPEKGLWENIVYLDFRALYPSIIITHNVSPDTLNLEGCKNYDIAPQVGHKFCKDIPGFIPSLLGHLLEERQKIKTKMKETQDPIEWILLDYRQKLIKLLANSFYGYYGYARARWYCRECAESVTAWGRKYIELTWKELEEKFGFKVLYIDTDGLHATIPGGESEEIKKKALEFVKYINSKLPGLLELEYEGFYKRGFFVTKKRYAVIDEEGKVITRGLEIVRRDWSEIAKETQARVLETILKHGDVEEAVRIVKEVIQKLANYEIPPEKLAIYEQITRPLHEYKAIGPHVAVAKKLAAKGVKIKPGMVIGYIVLRGDGPISNRAILAEEYDPKKHKYDAEYYIENQVLPAVLRILEGFGYRKEDLRYQKTRQVGLTSWLNIKKS
modifications: Mutant of Pyrococcus furiosus Polymerase
B2: K476W: Therminator with mutation K476W (9° N DNA pol numbering) (protein, UniProt Q56366 1-775, looked up, variant D141A E143A A485L K476W)
DNA polymerase: MILDTDYITENGKPVIRVFKKENGEFKIEYDRTFEPYFYALLKDDSAIEDVKKVTAKRHGTVVKVKRAEKVQKKFLGRPIEVWKLYFNHPQDVPAIRDRIRAHPAVVDIYEYDIPFAKRYLIDKGLIPMEGDEELTMLAFAIATLYHEGEEFGTGPILMISYADGSEARVITWKKIDLPYVDVVSTEKEMIKRFLRVVREKDPDVLITYNGDNFDFAYLKKRCEELGIKFTLGRDGSEPKIQRMGDRFAVEVKGRIHFDLYPVIRRTINLPTYTLEAVYEAVFGKPKEKVYAEEIAQAWESGEGLERVARYSMEDAKVTYELGREFFPMEAQLSRLIGQSLWDVSRSSTGNLVEWFLLRKAYKRNELAPNKPDERELARRRGGYAGGYVKEPERGLWDNIVYLDFRSLYPSIIITHNVSPDTLNREGCKEYDVAPEVGHKFCKDFPGFIPSLLGDLLEERQKIKRKMKATVDPLEWKLLDYRQRLIKILANSFYGYYGYAKARWYCKECAESVTAWGREYIEMVIRELEEKFGFKVLYADTDGLHATIPGADAETVKKKAKEFLKYINPKLPGLLELEYEGFYVRGFFVTKKKYAVIDEEGKITTRGLEIVRRDWSEIAKETQARVLEAILKHGDVEEAVRIVKEVTEKLSKYEVPPEKLVIHEQITRDLRDYKATGPHVAVAKRLAARGVKIRPGTVISYIVLKGSGRIGDRAIPADEFDPTKHRYDAEYYIENQVLPAVERILKAFGYRKEDLRYQKTKQVGLGAWLKVKGKK
modifications: Therminator
B3: R743A: Therminator with mutation R743A (9° N DNA pol numbering) (protein, UniProt Q56366 1-775, looked up, variant D141A E143A A485L R743A)
DNA polymerase: B2 DNA polymerase with W476K, R743A
B4: A639F: Therminator with mutation A639F (9° N DNA pol numbering) (protein, UniProt Q56366 1-775, looked up, variant D141A E143A A485L A639F)
DNA polymerase: B2 DNA polymerase with W476K, A639F
modifications: Therminator
B5: L478S: Therminator with mutation L478S (9° N DNA pol numbering) (protein, UniProt Q56366 1-775, looked up, variant D141A E143A A485L L478S)
DNA polymerase: B2 DNA polymerase with W476K, L478S
modifications: Therminator
B6: T590I: Therminator with mutation T590I (9° N DNA pol numbering) (protein, UniProt Q56366 1-775, looked up, variant D141A E143A A485L T590I)
DNA polymerase: B2 DNA polymerase with W476K, T590I
modifications: Therminator
B7: Therminator: DNA polymerase of SEQ ID NO:12, derivative of Thermococcus sp. 9° N-7 DNA polymerase (D141A/E143A/A485L), New England Biolabs (protein)
chain: B2 DNA polymerase with W476K
B8: G153D: Therminator with mutation G153D (9° N DNA pol numbering) (protein, UniProt Q56366 1-775, looked up, variant D141A E143A A485L G153D)
DNA polymerase: B2 DNA polymerase with G153D, W476K
modifications: Therminator
B9: T514S: Therminator with mutation T514S (9° N DNA pol numbering) (protein, UniProt Q56366 1-775, looked up, variant D141A E143A A485L T514S)
DNA polymerase: B2 DNA polymerase with W476K, T514S
modifications: Therminator
B10: K477M: Therminator with mutation K477M (9° N DNA pol numbering) (protein, UniProt Q56366 1-775, looked up, variant D141A E143A A485L K477M)
DNA polymerase: B2 DNA polymerase with W476K, K477M
modifications: Therminator
B11: D718N: Therminator with mutation D718N (9° N DNA pol numbering) (protein, UniProt Q56366 1-775, looked up, variant D141A E143A A485L D718N)
DNA polymerase: B2 DNA polymerase with W476K, D718N
B12: I521L: Therminator with mutation I521L (9° N DNA pol numbering) (protein, UniProt Q56366 1-775, looked up, variant D141A E143A A485L I521L)
DNA polymerase: B2 DNA polymerase with W476K, I521L
modifications: Therminator
B13: T144G: Therminator with mutation T144G (9° N DNA pol numbering) (protein, UniProt Q56366 1-775, looked up, variant D141A E143A A485L T144G)
DNA polymerase: B2 DNA polymerase with T144G, W476K
modifications: Therminator

Tests used:
Assay type in all cases: biochemical
E. coli DNA library = test: Sequencing with Lightning Terminators, E. coli DNA library (120 cycles)
Procedure: (§1) This section generally describes how the present mutant polymerases were used for sequencing-by-synthesis, and how their performance in sequencing was measured. Sequencing was performed on a breadboard instrument, essentially as described in Hertzog D, et al., “A high-performance, low-cost approach to next-generation sequencing”, BioOptics World. 2011 Issue November/December 2011.
(§2) In this example, a variety of mutations were introduced into Pfu10 by multi-site mutagenesis or into Pfu A486L/Y546H by domain substitutions to explore an acceptable degree of reduced identity and identify other mutant Pfu polymerases containing L486, F494, H546, and W477. […] Pfu10 and Pfu10-N12 were evaluated for performance in sequencing with Lightning Terminators, as described above.

Human DNA library = test: Sequencing with Lightning Terminators, Human DNA library (120 cycles)
Procedure: as §1, §2

Lightning Terminators = test: Sequencing-by-synthesis with Lightning Terminators (87 cycles); design: ARL (87 cycles) / Lead + Lag / Leading / Lagging: unit not given here
Procedure: as §1
In this example, mutations were introduced into the DNA polymerase of SEQ ID NO: 12 (Therminator) in an attempt to improve its capability in sequencing with 3′-OH unblocked terminators. Such mutations to Thermococcus sp. 9° N DNA polymerase are disclosed in U.S. Pat. Nos. 9,273,352; 9,677,059; 9,765,309; U.S. Pat. App. Publication No. 20160032377. The following table summarizes sequencing metrics with Lightning Terminators.
As used in this example and those that follow, “Lead+Lag” refers to dephasing errors in Sequencing by Synthesis technology caused by either reading the next base signal (Lead) or reading the previous base signal (Lag) relative to current base signals. Such errors may arise because of imperfect incoporation of reversible terminators by the polymerase.
In this example, mutant polymerases were created by introducing certain mutations (D141A/E143A/A485L) which are present in Therminator. The three mutations were introduced at the equivalent positions in JDF3 (Thermococcus sp. JDF3) and Pfu (Pyrococcus furisosus) DNA polymerases. The new mutant polymerases were then evaluated for their performance in sequencing with Lightning Terminators, as described above.

[1] = Therminator mutants, same unit concentrations (0.08 U/ul in cycle 1 and 0.008 U/ul in cycles 2-n)
[2] = alternative polymerases (D141A/E143A), same protein concentrations (0.02 ug/uL in cycle 1 and 0.002 ug/uL in cycles 2-n)

Molecule	% reads >85 bp (Lightning Terminators; [1]) [%]	ARL (87 cycles) (Lightning Terminators; [1])	Lead + Lag (Lightning Terminators; [1])	further results
B1	–	–	–	% reads >85 (E. coli DNA library): 82.6%; ARL (120 cycles) (E. coli DNA library): 93.8; FracQ30 (E. coli DNA library): 0.65; Lead + Lag (E. coli DNA library): 0.9; % reads >85 (Human DNA library; Human DNA library): 93.3%; ARL (120 cycles) (Human DNA library; Human DNA library): 111.6; FracQ30 (Human DNA library; Human DNA library): 0.68; Lead + Lag (Human DNA library; Human DNA library): 1.0; Sequencing performance with Lightning Terminators (in words) (Human DNA library; Human and E. coli libraries, compared with Pfu10): performs comparably if not slightly better than Pfu10
B2	31.8	70.2	1.4	–
B3	8.6	55.0	2.4	–
B4	6.9	58.5	2.3	–
B5	19.6	65.8	1.6	–
B6	32.2	68.1	1.3	–
B7	35.4	72.3	1.6	% reads >85 bp (Lightning Terminators; Example 3): 49.6%; FracQ30 (Lightning Terminators; Example 3): 0.58; Lagging (Lightning Terminators; Example 3): 0.61; Leading (Lightning Terminators; Example 3): 0.70; ARL (87 cycles) (Lightning Terminators; Example 3, Therminator 110 runs, Pfu10 12 runs): 76.0; % reads >85 (Lightning Terminators; [2]): 49.6%; ARL (87 cycles) (Lightning Terminators; [2]): 76.0; Lead + Lag (Lightning Terminators; [2]): 1.3
B8	21.5	66.7	1.8	–
B9	38.3	72.0	1.1	–
B10	27.7	68.8	1.6	–
B11	17.9	65.6	1.8	–
B12	2.8	53.9	2.8	–
B13	31.8	70.5	1.4	–
